Positions count from the first letter of the chain named.
T1: cynomolgus SIRPα expressed on cells (cynomolgus monkey, UniProt A0A2K5VYQ9 31-507)
T1 construct: whole, on cells; also called ExpiCHO-S (cySIRPα)
T1 sequence: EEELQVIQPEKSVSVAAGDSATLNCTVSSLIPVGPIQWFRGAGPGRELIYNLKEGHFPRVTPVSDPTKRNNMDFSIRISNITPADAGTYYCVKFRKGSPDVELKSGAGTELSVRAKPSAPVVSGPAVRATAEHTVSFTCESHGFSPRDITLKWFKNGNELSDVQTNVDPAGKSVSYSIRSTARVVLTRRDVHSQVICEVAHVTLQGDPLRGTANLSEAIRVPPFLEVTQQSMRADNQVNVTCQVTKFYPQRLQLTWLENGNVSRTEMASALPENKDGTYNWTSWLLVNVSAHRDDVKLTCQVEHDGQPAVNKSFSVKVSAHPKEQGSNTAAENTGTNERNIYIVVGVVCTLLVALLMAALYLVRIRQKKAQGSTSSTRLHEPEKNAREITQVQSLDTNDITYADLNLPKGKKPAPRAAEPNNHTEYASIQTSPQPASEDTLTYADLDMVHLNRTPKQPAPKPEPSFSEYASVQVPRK

T2: cynomolgus SIRPα (cySIRPα), protein antigen (cynomolgus monkey, UniProt A0A2K5VYQ9 31-369)
T2 construct: Coated on the plate in ELISA
T2 sequence: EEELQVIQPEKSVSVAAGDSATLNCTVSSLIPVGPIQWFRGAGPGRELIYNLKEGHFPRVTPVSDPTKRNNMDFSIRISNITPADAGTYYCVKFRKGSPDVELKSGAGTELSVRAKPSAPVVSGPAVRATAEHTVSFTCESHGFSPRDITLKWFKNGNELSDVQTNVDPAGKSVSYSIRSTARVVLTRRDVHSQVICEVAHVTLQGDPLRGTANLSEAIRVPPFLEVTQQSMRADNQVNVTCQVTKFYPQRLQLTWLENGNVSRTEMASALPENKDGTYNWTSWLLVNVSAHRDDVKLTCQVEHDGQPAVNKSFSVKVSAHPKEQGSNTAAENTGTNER

B1: anti-SIRPα antibody 12 humanized (antibody, human IgG1, kappa, L234A L235A, V domains shown)
VH: VQLVESGGRLVQPGTPLTLSCTVSGFSLSSYVMGWFRQAPGKGLEYIGIISSSGSPYYASWVNGRFTISKTSTTMDLKMNSLRSEDTATYFCARVGPLGVDYFNIWGPGTLVTVSS
VL: DIVMTQTPSSVEAAVGGTVTIKCQAGQSINSYLAWYQQKPGQRPKLLIYYASTLESGVPSRFKGSGSGTDYTLTISDLESADAATYYCQSWHYISRSYAFGGGTEVVVKR
notes: Humanized, human IgG1 LALA / kappa
B2: anti-SIRPα antibody 10 humanized (antibody, human IgG1, kappa, L234A L235A, V domains shown)
VH: KVEESGGGLVQPGGSLRLSCAASGFSLSSYVMGWVRQAPGKGLEWVSIISSSGSPYYASWVNGRFTISKDNSEGMVYLQMNSLRAEDTAVYYCARVGPLGVDYFNIWGQGTTVTVSS
VL: DIVMTQSPDSLAVSLGERATINCQAGQSINSYLAWYQQKPGQPPKLLIYYASTLESGVPDRFSGSGSGTDFTLTISSLQAEDVAVYYCQSWHYISRSYAFGGGTKLEIKR
notes: as for B1
B3: anti-SIRPα antibody 11 humanized (antibody, human IgG1, kappa, L234A L235A, V domains shown)
VH: EVKVEESGGGLVQPGGSLRLSCAASGFSLSSYVMGWVRQAPGKGLEWVSIISSSGSPYYASWVNGRFTISKTSTTMDLQMNSLRAEDTAVYYCARVGPLGVDYFNIWGQGTTVTVSS
VL: DIQMTQSPSSLSASVGDRVTITCQAGQSINSYLAWYQQKPGKVPKLLIYYASTLESGVPSRFSGSGSGTDFTLTISSLQPEDVATYYCQSWHYISRSYAFGQGTKVEIKR
notes: as for B1
B4: anti-SIRPα antibody 13 humanized (antibody, human IgG1, V domains shown)
VH: RQLVESGGGLVQPGGSLRLSCTASGFSLSSHGISWVRQAPGKGLEYIGTIGTGVITYFASWAKGRFTGSKTSSTAYMELSSLRSEDTAVYFCARGSAWNDPFDPWGQGTLVTVSS
VL: AIQMTQSPSSLSASVGDRVTITCQASQSVYGNNDLAWYQQKPGKAPKLLIYLASTLATGVPSRFSGSGSGTDFTLTISSLQPEDFATYYCLGGGDDEADNVFGGGTKVEIKR
notes: as for B1
B5: anti-SIRPα antibody 14 humanized (antibody, human IgG1, V domains shown)
VH: B4 VH
VL: B4 VL with A1D, Q3E, L11V, I21L, K44Q
notes: as for B1
B6: anti-SIRPα antibody 4 (antibody, human IgG1, kappa, L234A L235A, V domains shown)
VH: QSVEESGGRLGTPGTPLTLTCTVSGFSLSSYVMGWFRQAPGKGLEYIGIISSSGSPYYASWVNGRFTISKTSTTMDLKMNSPTTEDTATYFCARVGPLGVDYFNIWGPGTLVTVSL
VL: B1 VL
notes: Chimeric: rabbit variable regions on human IgG1 LALA / kappa; also called chimeric antibody 4
B7: anti-SIRPα antibody 3 (antibody, human IgG1, kappa, L234A L235A, V domains shown)
VH: QSVEESGGRLVTPGTPLTLACTVSGFSLISYYISWVRQAPEKGLEYIGIINIGGGASYASWAKGRFTISKTSTTVDLKITSPTPEDTATYFCAMSYGMDTGAFNIWGPGTLVTVSL
VL: AQVLTQTPASVSAAVGGTVTISCQSSESVYKNNFLSWYQQKPGKPPKLLIYGASTLASGVPSRFKGSGSGTQFTLTISDLESDDAATYFCQGGYRTDIYPFGGGTEVVVKR
notes: Rabbit variable regions on human IgG1 LALA / kappa

target: T3, human SIRPγ (huSIRPγ) (human, UniProt Q9P1W8 29-360, limits assumed, biotinylated in the SPR assay); experiment: SPR, biotinylated antigen captured, 25 C
T3 construct: Coated on the plate in ELISA, biotinylated and captured in SPR
T3 sequence (Q9P1W8 29-360 limits assumed): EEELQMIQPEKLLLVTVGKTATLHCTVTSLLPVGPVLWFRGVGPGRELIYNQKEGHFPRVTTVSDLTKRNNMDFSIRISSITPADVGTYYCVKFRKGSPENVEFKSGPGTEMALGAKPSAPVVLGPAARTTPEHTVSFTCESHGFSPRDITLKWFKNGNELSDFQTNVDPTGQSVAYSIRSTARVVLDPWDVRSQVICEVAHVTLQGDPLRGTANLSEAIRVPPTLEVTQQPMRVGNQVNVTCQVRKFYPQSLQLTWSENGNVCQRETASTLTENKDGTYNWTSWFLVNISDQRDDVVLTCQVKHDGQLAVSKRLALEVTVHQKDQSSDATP
Method: (§1) Surface Plasmon Resonance (SPR) assay: Affinity analysis was performed by single cycle kinetics analysis on a Surface Plasmon Resonance apparatus (Biacore T200 system, GE Life Sciences) at 25° C. Biotinylated SIRP antigens were captured on the surface of a chip suitable for biotinylated molecules (Sensor Chip CAP, GE Life Sciences) by injecting 5 μg/ml of the SIRP antigen in running buffer (10 mM HEPES buffer at pH 7.4 with 150 mM NaCl, 3 mM EDTA and 0.005% v/v polyoxyethylene (20) sorbitan monolaurate (Surfactant P20) for 60 sec at 10 μL/min after injection of a streptavidin conjugate (20× diluted biotin CAPture reagent, GE Life Sciences) for 60 sec at 10 μl/min. Baseline stabilization was set at 1 min after which five increasing concentrations of an anti-SIRP antibody in running buffer (10 mM HEPES buffer at pH 7.4 with 150 mM NaCl, 3 mM EDTA and 0.005% v/v polyoxyethylene (20) sorbitan monolaurate) were injected. For each step an association time of 150 sec was used, followed by a dissociation time of 1200 sec at the highest concentration only, all at a flow rate of 30 μL/min. Regeneration was performed with 6 M guanidine-HCl, 0.25 M NaOH solution (60 sec with flow rate of 30 μL/min). Double blank subtraction was performed on the observed sensorgrams using a non anti-SIRP (blank) immobilized reference flow channel and running buffer injection. Sensorgrams were fitted with a 1:1 Langmuir model for all tested anti-SIRP antibodies. The kinetic parameters (kₐ, kd and KD) were calculated using the Biacore T200 evaluation software (v3.1).

binding result | Binder
no binding | B1
no binding | B2
no binding | B3
no binding | B4
no binding | B5

target: T4, human SIRPα1 (huSIRPα1), protein antigen (human, UniProt P78324 31-370, limits assumed, biotinylated in the SPR assay); experiment: SPR, biotinylated antigen captured, 25 C
T4 construct: Coated on the plate in ELISA, biotinylated and captured in SPR; also called v2
T4 sequence (P78324 other isoform, or with tags, fused parts or gaps limits assumed): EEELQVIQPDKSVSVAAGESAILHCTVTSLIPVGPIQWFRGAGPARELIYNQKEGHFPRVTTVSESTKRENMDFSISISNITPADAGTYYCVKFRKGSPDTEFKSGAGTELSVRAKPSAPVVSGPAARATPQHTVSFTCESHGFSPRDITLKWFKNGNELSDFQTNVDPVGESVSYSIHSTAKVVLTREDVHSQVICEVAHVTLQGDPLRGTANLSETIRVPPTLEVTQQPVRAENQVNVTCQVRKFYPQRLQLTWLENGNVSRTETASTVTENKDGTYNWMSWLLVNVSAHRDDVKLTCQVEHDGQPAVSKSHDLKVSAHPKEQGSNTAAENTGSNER
Method: as §1

Kd [nM] | Binder
0.026 | B6
0.059 | B1
3.2 | B2
41 | B3
< 0.01 | B4
< 0.01 | B5

target: human SIRPαBIT (huSIRPαBIT), protein antigen (human) (UniProt P78324); experiment: SPR, biotinylated antigen captured, 25 C
Sequence (P78324 31-370): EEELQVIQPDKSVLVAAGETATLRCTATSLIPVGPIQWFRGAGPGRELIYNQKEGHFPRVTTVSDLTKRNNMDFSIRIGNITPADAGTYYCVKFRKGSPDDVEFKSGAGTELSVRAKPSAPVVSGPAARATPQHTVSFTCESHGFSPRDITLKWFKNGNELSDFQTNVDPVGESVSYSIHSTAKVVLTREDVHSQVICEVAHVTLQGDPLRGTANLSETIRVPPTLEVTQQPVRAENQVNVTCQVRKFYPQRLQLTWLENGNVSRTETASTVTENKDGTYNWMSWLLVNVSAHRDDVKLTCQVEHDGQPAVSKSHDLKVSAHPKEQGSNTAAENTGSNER

Kd [nM] | Binder
< 0.01 | B6
< 0.01 | B1
< 0.01 | B2
0.14 | B3
0.012 | B4
0.089 | B5

target: T5, human SIRPα1 expressed on cells (human, UniProt P78324 31-504); experiment: flow cytometry, ExpiCHO-S cells
T5 construct: whole, on cells; also called ExpiCHO-S (huSIRPα1); CHO cells expressing huSIRPα1
T5 sequence (P78324 other isoform, or with tags, fused parts or gaps limits assumed): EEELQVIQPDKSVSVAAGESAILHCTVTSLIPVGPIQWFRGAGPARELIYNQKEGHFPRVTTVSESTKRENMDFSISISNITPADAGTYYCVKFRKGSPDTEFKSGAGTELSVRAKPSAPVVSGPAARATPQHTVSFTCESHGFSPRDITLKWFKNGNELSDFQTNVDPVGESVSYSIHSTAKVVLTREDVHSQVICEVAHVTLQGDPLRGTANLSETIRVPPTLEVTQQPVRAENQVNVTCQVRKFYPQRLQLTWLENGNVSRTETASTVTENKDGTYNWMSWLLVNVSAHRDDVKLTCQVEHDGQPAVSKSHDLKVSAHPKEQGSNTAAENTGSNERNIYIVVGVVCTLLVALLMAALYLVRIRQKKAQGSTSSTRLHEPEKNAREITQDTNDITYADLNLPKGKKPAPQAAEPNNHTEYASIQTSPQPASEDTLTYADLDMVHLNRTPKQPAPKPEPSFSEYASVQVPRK
Description: (§2) Flow Cytometry: U937 cells endogenously expressing human SIRPαBIT antigen and cells derived from a non-engineered subclone that has been screened and isolated from CHO-S Chinese hamster ovary cells (ExpiCHO-S) cells expressing human SIRPα₁, SIRPαBIT or cySIRPα antigen (100,000 cells/well in a 96-well plate) were washed three times with ice-cold FACS buffer (1×PBS (LONZA) containing 0.2% v/w BSA (Sigma-Aldrich, St. Louis, Mo.) and 0.02% v/w NaN₃ (Sigma-Aldrich), followed by the addition of a concentration range of each primary mAb (50 μL/well) diluted in ice-cold FACS buffer. After an incubation time of 30 min at 4° C., the cells were washed three times with ice-cold FACS buffer and 50 μL/well secondary mAb (AffiniPure F(ab′)₂ fragment Goat-anti-human IgG-APC, 1:6,000 dilution, Jackson Immuno Research) was added. After 30 min at 4° C., cells were washed twice and resuspended in 150 μL FACS buffer. Fluorescence intensities were determined by flow cytometry (BD FACSVerse, Franklin Lakes, N.J.) and indicated as the median fluorescence intensity (MFI-Median) for U937 cells and ExpiCHO-S cells. Curves were fitted by nonlinear regression using the sigmoidal dose-response equation with variable slope (four parameters) in GraphPad Prism (version 7.02 for Windows, GraphPad, San Diego, Calif.). EC₅₀ values were calculated as the concentration in μg/mL that gives a response half way between bottom and top of the curve, when using a 4-parameter logistic fit.

EC50 [µg/mL] | Binder
0.41 | B6
0.1 | B1
0.38 | B2
1.05 | B3
0.36 | B4
0.37 | B5

target: T1, cynomolgus SIRPα expressed on cells; experiment: flow cytometry, ExpiCHO-S cells
Description: as §2

EC50 [µg/mL] | Binder
0.18 | B6
0.17 | B1
0.27 | B2
0.32 | B3
0.44 | B4
0.38 | B5

target: T3, human SIRPγ (huSIRPγ); experiment: ELISA, antigen coated; ELISA (Table 2); finite EC50, below the 100,000 ng/ml cap
Method: (§3) ELISA assay: Solutions of huSIRPα₁, huSIRPαBIT, huSIRPβ₁ᵥ₁, huSIRPβ₁ᵥ₂, huSIRPγ and cySIRPα in phosphate buffered saline (PBS) were each added to a multiple well black polystyrene plate for ELISA and allowed to adhere for 1 h at RT. Unbound protein was removed with three washing steps using standard washing buffer. Subsequently, blocking buffer was added to the wells. After 1 h incubation at RT, the wells were washed three times with standard washing buffer. The antibodies in buffer at various concentrations were added to the wells and incubated at RT for 1 h. Unbound antibodies were removed with three washing steps using standard washing buffer. Goat anti human IgG (Fab′)₂:horse radish peroxidase (HRP) in buffer was added to the wells and incubated at RT for 1 h. 3,3′,5,5′-Tetramethylbenzidine (TMB) was added and after sufficient colour development HCl was added. Absorbance was read at 450 nm/620 nm.

EC50 [µg/mL] | Binder
5.22 | B7

target: human SIRPαBIT expressed on cells (human) (UniProt P78324); experiment: flow cytometry, U937 cells
Sequence (P78324 31-504): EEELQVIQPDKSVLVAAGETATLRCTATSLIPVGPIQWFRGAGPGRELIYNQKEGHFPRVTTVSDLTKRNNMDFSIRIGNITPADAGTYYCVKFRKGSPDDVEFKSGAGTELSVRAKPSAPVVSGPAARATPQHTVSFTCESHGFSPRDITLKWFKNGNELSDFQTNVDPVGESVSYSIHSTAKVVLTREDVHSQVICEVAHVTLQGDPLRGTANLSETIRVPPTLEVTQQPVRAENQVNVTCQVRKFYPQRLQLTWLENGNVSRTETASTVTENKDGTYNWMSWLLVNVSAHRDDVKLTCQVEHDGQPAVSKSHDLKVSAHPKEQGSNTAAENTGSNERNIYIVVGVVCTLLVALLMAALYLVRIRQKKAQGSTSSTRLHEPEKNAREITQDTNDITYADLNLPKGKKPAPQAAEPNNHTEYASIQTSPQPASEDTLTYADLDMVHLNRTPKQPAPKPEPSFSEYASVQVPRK

EC50 [µg/mL] | Binder
0.12 | B6
0.2 | B1
0.17 | B2
0.13 | B3
0.22 | B7
0.14 | B4
0.22 | B5

target: human SIRPβ1v1 (huSIRPβ1v1) (human) (UniProt O00241); experiment: ELISA, antigen coated
Sequence (O00241 30-371): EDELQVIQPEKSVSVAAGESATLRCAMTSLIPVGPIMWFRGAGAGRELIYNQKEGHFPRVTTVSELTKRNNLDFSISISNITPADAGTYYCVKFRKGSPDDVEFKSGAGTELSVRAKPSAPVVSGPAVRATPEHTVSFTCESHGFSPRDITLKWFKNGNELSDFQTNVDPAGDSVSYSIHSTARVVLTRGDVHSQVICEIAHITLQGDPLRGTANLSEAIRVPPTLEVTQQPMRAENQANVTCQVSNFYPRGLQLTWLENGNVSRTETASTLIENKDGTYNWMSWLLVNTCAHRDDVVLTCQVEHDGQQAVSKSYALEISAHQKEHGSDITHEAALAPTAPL

EC50 [µg/mL] | Binder
> 100 | B6
> 100 | B7

target: human SIRPαBIT (huSIRPαBIT), protein antigen (human) (UniProt P78324); experiment: ELISA, antigen coated

EC50 [µg/mL] | Binder
0.025 | B6
0.024 | B7

target: human SIRPαBIT expressed on cells (human) (UniProt P78324); experiment: flow cytometry, ExpiCHO-S cells

EC50 [µg/mL] | Binder
0.23 | B6
0.46 | B1
0.2 | B2
0.3 | B3
0.23 | B4
0.29 | B5

target: T6, human SIRPβ1v2 (huSIRPβ1v2) (human, UniProt Q5TFQ8 30-371); experiment: ELISA, antigen coated
T6 construct: Coated on the plate in ELISA; Only the Ensembl protein number is printed; also called huSIRPß1v2
T6 sequence (Q5TFQ8 30-371 limits assumed): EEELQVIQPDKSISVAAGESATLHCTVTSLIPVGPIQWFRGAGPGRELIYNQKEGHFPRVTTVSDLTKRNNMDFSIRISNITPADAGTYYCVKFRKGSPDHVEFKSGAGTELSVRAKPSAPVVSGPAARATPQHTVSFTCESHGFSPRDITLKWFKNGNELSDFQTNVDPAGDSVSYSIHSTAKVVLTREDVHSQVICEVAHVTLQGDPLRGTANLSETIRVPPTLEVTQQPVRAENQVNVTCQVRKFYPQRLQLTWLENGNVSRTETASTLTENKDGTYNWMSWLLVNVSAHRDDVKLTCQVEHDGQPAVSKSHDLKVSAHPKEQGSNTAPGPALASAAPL
Method: as §3

EC50 [µg/mL] | Binder
0.092 | B6
0.089 | B7

target: T3, human SIRPγ (huSIRPγ); experiment: ELISA, antigen coated
Method: as §3

EC50 [µg/mL] | Binder
> 100 | B6

target: T4, human SIRPα1 (huSIRPα1), protein antigen; experiment: ELISA, antigen coated
Method: as §3

EC50 [µg/mL] | Binder
0.053 | B6
0.015 | B7

target: T2, cynomolgus SIRPα (cySIRPα), protein …; experiment: ELISA, antigen coated
Method: as §3

EC50 [µg/mL] | Binder
0.099 | B6
0.036 | B7

From US20220195063A1 (BYONDIS B V, published 2022)
